# Reference: patent publication US20240368668A1, “SUBSTRATES AND BIOMARKERS OF ADAMTS7” (The Broad Institute, Inc., priority 2021, published 2024)
# Square brackets hold non-standard residues; d marks the D form. Ends that are not written are not given here. deamidated = deamidated asparagine; Met(O) = CS(=O)CC[C@H](N)C(=O)O
# Target: T1, mouse ADAMTS7 (Mus musculus, UniProt Q68SA9, E373Q)
# T1 construct: Full-length mouse Adamts7 1-1857 (Uniprot Q68SA9, WT or E373Q catalytic mutant); expressed in transfected cells; host or cells: Human Coronary Artery Smooth Muscle Cells (HCA-SMC, Lonza), adenovirus 50 MOI
# T1 sequence (Q68SA9 221-1657 E373Q): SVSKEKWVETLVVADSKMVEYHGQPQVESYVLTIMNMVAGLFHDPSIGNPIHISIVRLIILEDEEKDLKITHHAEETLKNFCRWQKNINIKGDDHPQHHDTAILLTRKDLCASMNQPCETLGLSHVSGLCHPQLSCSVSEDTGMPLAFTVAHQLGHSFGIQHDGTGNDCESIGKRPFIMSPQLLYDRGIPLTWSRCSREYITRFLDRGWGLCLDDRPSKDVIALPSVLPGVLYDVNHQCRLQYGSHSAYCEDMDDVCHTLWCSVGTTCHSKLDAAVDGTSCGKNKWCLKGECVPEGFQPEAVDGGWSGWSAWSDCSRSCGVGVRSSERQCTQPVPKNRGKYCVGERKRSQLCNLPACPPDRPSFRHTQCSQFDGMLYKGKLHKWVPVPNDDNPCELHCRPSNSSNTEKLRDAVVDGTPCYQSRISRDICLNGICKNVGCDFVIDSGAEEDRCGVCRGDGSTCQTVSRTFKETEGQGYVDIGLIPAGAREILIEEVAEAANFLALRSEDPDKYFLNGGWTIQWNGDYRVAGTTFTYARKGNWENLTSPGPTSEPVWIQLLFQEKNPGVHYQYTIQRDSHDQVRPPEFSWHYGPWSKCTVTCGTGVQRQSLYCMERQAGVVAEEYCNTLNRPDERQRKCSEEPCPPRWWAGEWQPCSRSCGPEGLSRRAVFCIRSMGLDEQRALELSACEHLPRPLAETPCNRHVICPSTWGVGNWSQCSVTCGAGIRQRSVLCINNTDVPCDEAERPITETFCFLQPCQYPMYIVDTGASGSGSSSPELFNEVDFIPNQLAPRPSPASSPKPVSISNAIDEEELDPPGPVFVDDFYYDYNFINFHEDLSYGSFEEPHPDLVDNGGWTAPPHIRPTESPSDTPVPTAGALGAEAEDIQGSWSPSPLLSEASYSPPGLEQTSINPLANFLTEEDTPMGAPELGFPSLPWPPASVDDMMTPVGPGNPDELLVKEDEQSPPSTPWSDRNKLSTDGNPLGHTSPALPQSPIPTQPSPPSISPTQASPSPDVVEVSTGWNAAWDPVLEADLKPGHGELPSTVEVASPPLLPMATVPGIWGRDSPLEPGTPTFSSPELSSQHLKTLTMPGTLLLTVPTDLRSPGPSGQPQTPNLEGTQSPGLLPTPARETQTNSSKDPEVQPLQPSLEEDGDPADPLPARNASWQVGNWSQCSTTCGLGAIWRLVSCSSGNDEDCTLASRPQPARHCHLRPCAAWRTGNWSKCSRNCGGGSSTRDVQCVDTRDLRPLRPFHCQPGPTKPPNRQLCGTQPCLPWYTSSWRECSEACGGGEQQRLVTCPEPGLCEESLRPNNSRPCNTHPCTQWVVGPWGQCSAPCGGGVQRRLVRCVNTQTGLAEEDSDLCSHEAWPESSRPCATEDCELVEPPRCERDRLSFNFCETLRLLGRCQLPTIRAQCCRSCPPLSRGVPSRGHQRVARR
# Assay: TMT10 TAILS N-terminomics, SMC1 experiment (Ad-mADAMTS7 WT vs EQ vs Luc, technical replicates, trypsin digest)
# Type: cell-based
# Details: TAILS neo-N-terminal peptide abundance; log fold change, Ad-mADAMTS7 EQ over Luc
# Summary of the method: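 Full-length mouse ADAMTS7 (WT or E373Q mutant, C-terminal 3xFLAG) or luciferase was transduced via adenovirus, 50 MOI, into HCA-SMC (SMC1, SMC2) or HUVEC. SMC1: pooled media, technical triplicates 400 ug; SMC2: process triplicates 300 ug; HUVEC: process triplicates 200 ug, bFGF2 10 ng/ml.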
row,Substance,logFC.mEQ.over.Luc
1,COL1A2_113 (FQGPAGEPGEPGQTGPAGAR; listed as Homo sapiens),−0.61
2,COL1A2_305 (LTGAKGAAGLPGVAGAPGLPGPR; listed as Homo sapiens),−0.16
3,COL1A2_425 (ASGPAGVR; listed as Homo sapiens),−0.17
4,COL1A2_731 (AAGQPGAKGER; listed as Homo sapiens),−0.18
5,COL1A2_960 (AGAPGPHGPVGPAGKHGNR; listed as Homo sapiens),−0.35
6,COL1A2_1028 (LQGLPGIAGHHGDQGAPGSVGPAGPR; listed as Homo sapiens),−0.28
7,COL1A2_1127 (SLRPKDYEVDATLKSLNNQIETLLTPEGSR; listed as Homo sapiens),−0.45
8,COL4A2_71 (YNGPPGLQGFPGLQGR; listed as Homo sapiens),−0.37
9,COL4A2_172 (YALPKEER; listed as Homo sapiens),0.76
10,COL18A1_1505 (LQPPVVQLHDSNPYPR; listed as Homo sapiens),−0.01
11,LTBP2_1602 (EAGVHFR; listed as Homo sapiens),0.64
12,MAN2A1_51 (LQEKIDHLER; listed as Homo sapiens),0.18
13,MAP4_815 (AVASTGPSSR; listed as Homo sapiens),0.10
14,MAP4_816 (VASTGPSSR; listed as Homo sapiens),−0.18
15,NID2_291 (HSSVPLGR; listed as Homo sapiens),−0.08
16,NID2_374 (VGGPDLKGQVEPWDER; listed as Homo sapiens),−0.14
17,NID2_467 (LEDNIGSNTEVFTYNAANKETCEHNHR; listed as Homo sapiens),−0.09
18,NID2_951 (YAYPGAR; listed as Homo sapiens),−0.58
19,NUCB1_228 (LKEVWEELDGLDPNR; listed as Homo sapiens),0.07
20,NUCB1_317 (FLASTQR; listed as Homo sapiens),−0.11
21,NUCB1_389 (LQQAVLHMEQR; listed as Homo sapiens),0.15
22,PAPPA_41 (AAGPATCATR; listed as Homo sapiens),0.35
23,POLR3G_88 (LFCSHWSHIPGFK; listed as Homo sapiens),0.00
24,POSTN_413 (FSDDTLSMDQR; listed as Homo sapiens),−0.02
25,POSTN_754 (IITGPEIKYTR; listed as Homo sapiens),0.10
26,POSTN_790 (FIEGGDGHLFEDEEIKR; listed as Homo sapiens),−0.31
27,POSTN_807 (LLQGDTPVR; listed as Homo sapiens),−0.07
28,PPP1R18_295 (LSETLTR; listed as Homo sapiens),−0.08
29,PSAP_171 (F[Met(O)]ANIPLLLYPQDGPR; listed as Homo sapiens),0.10
30,PXDN_1393 (QKTITDLR; listed as Homo sapiens),0.10

# Next, values leading:
row,logFC.mEQ.over.Luc,Substance
1,−0.12,CDC37_43 (FQKEKEELDR; listed as Homo sapiens)
2,−0.03,CDH11_467 (HQEAKVPVAIR; listed as Homo sapiens)
3,−0.34,CLEC11A_50 (HLQEALGLPAGR; listed as Homo sapiens)
4,0.19,COL1A2_80 (QYDGKGVGLGPGPMGLMGPR; listed as Homo sapiens)
5,−0.07,COL1A2_91 (GPMGLMGPR; listed as Homo sapiens)
6,0.70,COL1A2_270 (VGNAGPAGPAGPR; listed as Homo sapiens)
7,0.39,COL1A2_389 (SAGPPGPPGLR; listed as Homo sapiens)
8,−0.27,COL1A2_630 (VGTAGPSGPSGLPGER; listed as Homo sapiens)
9,−0.34,COL1A2_681 (VGAPGPAGATGDR; listed as Homo sapiens)
10,−0.24,COL1A2_866 (LLGAPGILGLPGSR; listed as Homo sapiens)
11,−0.79,COL1A2_1037 (HHGDQGAPGSVGPAGPR; listed as Homo sapiens)
12,−0.21,COL5A1_544 (SQAQAILQQAR; listed as Homo sapiens)
13,−0.25,COL8A1_90 (MKEIQPAPR; listed as Homo sapiens)
14,−0.04,ECM1_43 (YAAPPSPPLSR; listed as Homo sapiens)
15,−0.20,MAP1B_1065 (LTTPTKQLGAQSPGR; listed as Homo sapiens)
16,−0.23,MGAT4B_28 (LSGQKGDVVDVYQR; listed as Homo sapiens)
17,−0.08,MMP1_24 (LETQEQDVDLVQKYLEKYYNLKN(deamidated)DGR; listed as Homo sapiens)
18,−0.14,OS9_54 ([code q]SQSSDVVIVSSKYKQR; also: modified N-terminal Gln; listed as Homo sapiens)
19,−0.06,OS9_55 (SQSSDVVIVSSKYKQR; listed as Homo sapiens)
20,−0.13,PDLIM4_104 (IDPEIQDGSPTTSR; listed as Homo sapiens)
21,1.36,PXDN_1341 (SYQEDKPTKKTR; listed as Homo sapiens)
